Variants at the floor of the assay were thinned out.
What was measured:
[1] = system: biotinyl-Trp-oxazolone; test: self-aminoacylation, catalytic enhancement (BWO) (fold over background); higher = more active; k-Seq, kA / k0A0; sequences stand for … in GGGAAUGGAUCCACAUCUACGAAUUC…UUCACUGCAGACUUGACGAAGCUG
In short: (§1)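 Mutagenized RNA pools with a 21-nt variable region (0.43 μM) were reacted with each biotinyl-aminoacyl-oxazolone at 2–1250 μM for 90 minutes at room temperature, in 50 μL HEPES/NaCl/KCl/MgCl2/CaCl2 buffer containing 5% acetonitrile at pH 6.9–7.0. RNA captured on streptavidin was quantified by triplicate qPCR and by Illumina sequencing. The fraction reacted for each sequence was fit to a pseudo-first-order model with bootstrapping, and catalytic enhancement is the median kA divided by the uncatalyzed rate, taken as the low-activity peak of a bimodal Gaussian fit.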

[2] = system: biotinyl-Ile-oxazolone; test: self-aminoacylation, catalytic enhancement (BIO) (fold over background); higher = more active; k-Seq, kA / k0A0; sequences stand for … in GGGAAUGGAUCCACAUCUACGAAUUC…UUCACUGCAGACUUGACGAAGCUG
In short: as §1

[3] = system: biotinyl-Leu-oxazolone; test: self-aminoacylation, catalytic enhancement (BLO) (fold over background); higher = more active; k-Seq, kA / k0A0; sequences stand for … in GGGAAUGGAUCCACAUCUACGAAUUC…UUCACUGCAGACUUGACGAAGCUG
In short: as §1

[4] = system: biotinyl-Val-oxazolone; test: self-aminoacylation, catalytic enhancement (BVO) (fold over background); higher = more active; k-Seq, kA / k0A0; sequences stand for … in GGGAAUGGAUCCACAUCUACGAAUUC…UUCACUGCAGACUUGACGAAGCUG
In short: as §1

[5] = system: biotinyl-Phe-oxazolone; test: self-aminoacylation, catalytic enhancement (BFO) (fold over background); higher = more active; k-Seq, kA / k0A0; sequences stand for … in GGGAAUGGAUCCACAUCUACGAAUUC…UUCACUGCAGACUUGACGAAGCUG
In short: as §1

[6] = system: biotinyl-Met-oxazolone; test: self-aminoacylation, catalytic enhancement (BMO) (fold over background); higher = more active; k-Seq, kA / k0A0; sequences stand for … in GGGAAUGGAUCCACAUCUACGAAUUC…UUCACUGCAGACUUGACGAAGCUG
In short: as §1

Sequence: AGGUUUGCUAAGAGUCGCAAG [Fam3.1 aminoacylation ribozyme variant]
- self-aminoacylation [1]: 1.54
- self-aminoacylation [2]: 1.12
- self-aminoacylation [3]: 1.02
- self-aminoacylation [4]: 1.02
- self-aminoacylation [5]: 3.17
- self-aminoacylation [6]: 1.15

Sequence: CCUCAGUUCAAGCAAUCGGUC [Fam1B.1 aminoacylation ribozyme variant]
- self-aminoacylation [1]: 3.37
- self-aminoacylation [2]: 1.12
- self-aminoacylation [3]: 1.36
- self-aminoacylation [4]: 1.03
- self-aminoacylation [5]: 5.46
- self-aminoacylation [6]: 1.17

Sequence: AUUCACCUAGGUCAUACGGUG [Fam2.2 aminoacylation ribozyme variant]
- self-aminoacylation [1]: 6.75
- self-aminoacylation [2]: 4.38
- self-aminoacylation [3]: 10.3
- self-aminoacylation [4]: 4.41
- self-aminoacylation [5]: 55.7
- self-aminoacylation [6]: 7.59

Sequence: CUACUCCAAACAAUCGGGCUG [Fam1A.1 aminoacylation ribozyme variant]
- self-aminoacylation [1]: 1.14
- self-aminoacylation [2]: 1.36
- self-aminoacylation [3]: 1.29
- self-aminoacylation [4]: 1.01
- self-aminoacylation [5]: 1.02
- self-aminoacylation [6]: 1.61

Sequence: CUACUUGAAACAAUGGGUCUG [Fam1A.1 aminoacylation ribozyme variant]
- self-aminoacylation [1]: 1.61
- self-aminoacylation [2]: 1.3
- self-aminoacylation [3]: 1.13
- self-aminoacylation [4]: 1.13
- self-aminoacylation [5]: 0.694
- self-aminoacylation [6]: 1.65

Sequence: AUUACCCUACUCAUCGAGUGA [Fam2.1 aminoacylation ribozyme variant]
- self-aminoacylation [1]: 9
- self-aminoacylation [2]: 3.24
- self-aminoacylation [3]: 6.54
- self-aminoacylation [4]: 3.19
- self-aminoacylation [5]: 35.1
- self-aminoacylation [6]: 7.19

Sequence: AUUCAGCUUGGUCAUCGGGUG [Fam2.2 aminoacylation ribozyme variant]
- self-aminoacylation [1]: 4.05
- self-aminoacylation [2]: 2.75
- self-aminoacylation [3]: 3.63
- self-aminoacylation [4]: 3.37
- self-aminoacylation [5]: 14
- self-aminoacylation [6]: 3.5

Sequence: CUAAUUCAAACAAUCGAUCUG [Fam1A.1 aminoacylation ribozyme variant]
- self-aminoacylation [1]: 0.361
- self-aminoacylation [2]: 0.604
- self-aminoacylation [3]: 0.544
- self-aminoacylation [4]: 0.561
- self-aminoacylation [5]: 0.72
- self-aminoacylation [6]: 0.43

Sequence: CGACUUCAAACAAUCGGUCUU [Fam1A.1 aminoacylation ribozyme variant]
- self-aminoacylation [1]: 12.7
- self-aminoacylation [2]: 1.64
- self-aminoacylation [3]: 1.77
- self-aminoacylation [4]: 1.71
- self-aminoacylation [5]: 18.2
- self-aminoacylation [6]: 1.26

Sequence: GUUACCCUGGGCAUCGAGUGA [Fam2.1 aminoacylation ribozyme variant]
- self-aminoacylation [1]: 10.1
- self-aminoacylation [2]: 4.53
- self-aminoacylation [3]: 8.7
- self-aminoacylation [4]: 4.16
- self-aminoacylation [5]: 68.6
- self-aminoacylation [6]: 8.99

Sequence: AUUACCCUGGGCAUCAAGUGA [Fam2.1 aminoacylation ribozyme variant]
- self-aminoacylation [1]: 1.64
- self-aminoacylation [2]: 1.16
- self-aminoacylation [3]: 1.73
- self-aminoacylation [4]: 1.37
- self-aminoacylation [5]: 2.16
- self-aminoacylation [6]: 1.76

Sequence: AUUCACCUAGGUCAUCGGAUA [Fam2.2 aminoacylation ribozyme variant]
- self-aminoacylation [1]: 0.615
- self-aminoacylation [2]: 0.894
- self-aminoacylation [3]: 0.877
- self-aminoacylation [4]: 1.2
- self-aminoacylation [5]: 0.865
- self-aminoacylation [6]: 0.754

Sequence: AUUACCCUGGCCAUCGGGUGA [Fam2.1 aminoacylation ribozyme variant]
- self-aminoacylation [1]: 11.8
- self-aminoacylation [2]: 3.8
- self-aminoacylation [3]: 9.65
- self-aminoacylation [4]: 6.42
- self-aminoacylation [5]: 49.1
- self-aminoacylation [6]: 8.01

Sequence: AUUACCAUGGUCAUUGAGUGA [Fam2.1 aminoacylation ribozyme variant]
- self-aminoacylation [1]: 13.8
- self-aminoacylation [2]: 5.76
- self-aminoacylation [3]: 12.1
- self-aminoacylation [4]: 5.51
- self-aminoacylation [5]: 63.6
- self-aminoacylation [6]: 11.8

Sequence: CUACUUUAAAAAAUCGGUCUG [Fam1A.1 aminoacylation ribozyme variant]
- self-aminoacylation [1]: 0.72
- self-aminoacylation [2]: 1.01
- self-aminoacylation [3]: 0.744
- self-aminoacylation [4]: 0.87
- self-aminoacylation [5]: 0.887
- self-aminoacylation [6]: 0.987

Sequence: AUGUUAGCUAAUAGUCGCAAG [Fam3.1 aminoacylation ribozyme variant]
- self-aminoacylation [1]: 0.993
- self-aminoacylation [2]: 1.57
- self-aminoacylation [3]: 1.39
- self-aminoacylation [4]: 1.29
- self-aminoacylation [5]: 1.84
- self-aminoacylation [6]: 1.45

Sequence: AUUCACCCAGGUCCUCGGGUG [Fam2.2 aminoacylation ribozyme variant]
- self-aminoacylation [1]: 5.85
- self-aminoacylation [2]: 3.22
- self-aminoacylation [3]: 6.67
- self-aminoacylation [4]: 3.89
- self-aminoacylation [5]: 35.5
- self-aminoacylation [6]: 5.45

Sequence: AUUCUCCUAGGUCAUCGGGCG [Fam2.2 aminoacylation ribozyme variant]
- self-aminoacylation [1]: 4.23
- self-aminoacylation [2]: 3.24
- self-aminoacylation [3]: 5.06
- self-aminoacylation [4]: 3.43
- self-aminoacylation [5]: 13.6
- self-aminoacylation [6]: 3.97

Sequence: CCACACUUCAAGAAAUCGGUG [Fam1B.1 aminoacylation ribozyme variant]
- self-aminoacylation [1]: 8.37
- self-aminoacylation [2]: 4.82
- self-aminoacylation [3]: 10.6
- self-aminoacylation [4]: 3.53
- self-aminoacylation [5]: 55.3
- self-aminoacylation [6]: 6.53

Sequence: AUUCACUUUGGUCAUCGGGUG [Fam2.2 aminoacylation ribozyme variant]
- self-aminoacylation [1]: 7.2
- self-aminoacylation [2]: 4.75
- self-aminoacylation [3]: 9.51
- self-aminoacylation [4]: 4.71
- self-aminoacylation [5]: 65.4
- self-aminoacylation [6]: 8.05

Sequence: CUACAUUUCAAGCAAUCGGUC [Fam1B.1 aminoacylation ribozyme variant]
- self-aminoacylation [1]: 1.45
- self-aminoacylation [2]: 0.887
- self-aminoacylation [3]: 0.705
- self-aminoacylation [4]: 0.849
- self-aminoacylation [5]: 2.41
- self-aminoacylation [6]: 0.748

Sequence: AUUCACCUCGGUCAUCGGGGG [Fam2.2 aminoacylation ribozyme variant]
- self-aminoacylation [1]: 2.72
- self-aminoacylation [2]: 2.66
- self-aminoacylation [3]: 2.98
- self-aminoacylation [4]: 2.67
- self-aminoacylation [5]: 12.8
- self-aminoacylation [6]: 3.13

Sequence: AGUCACCUAGUUCAUCGGGUG [Fam2.2 aminoacylation ribozyme variant]
- self-aminoacylation [1]: 5.16
- self-aminoacylation [2]: 3.71
- self-aminoacylation [3]: 4.05
- self-aminoacylation [4]: 3.29
- self-aminoacylation [5]: 24
- self-aminoacylation [6]: 4.14

Sequence: CUAGUUCAAACAAUCGCUCUG [Fam1A.1 aminoacylation ribozyme variant]
- self-aminoacylation [1]: 0.844
- self-aminoacylation [2]: 0.832
- self-aminoacylation [3]: 0.798
- self-aminoacylation [4]: 0.934
- self-aminoacylation [5]: 0.847
- self-aminoacylation [6]: 0.827

Sequence: CUACUUCAAACAAUCCUUCUG [Fam1A.1 aminoacylation ribozyme variant]
- self-aminoacylation [1]: 0.528
- self-aminoacylation [2]: 0.603
- self-aminoacylation [3]: 0.469
- self-aminoacylation [4]: 0.665
- self-aminoacylation [5]: 1.04
- self-aminoacylation [6]: 0.577

Sequence: AAAUUUGCUAAUAGUUGCAAG [Fam3.1 aminoacylation ribozyme variant]
- self-aminoacylation [1]: 1.71
- self-aminoacylation [2]: 1.61
- self-aminoacylation [3]: 1.08
- self-aminoacylation [4]: 1.21
- self-aminoacylation [5]: 1.44
- self-aminoacylation [6]: 1.24

From the supplement of paper PMC9233669
